Measurements taken from PMC8660055.

Legend:
[1] = molecular target: PDCoV S1 protein (porcine deltacoronavirus (PDCoV)); test: ELISA
[2] = molecular target: PDCoV S2 protein (porcine deltacoronavirus (PDCoV)); test: ELISA

For “Griffithsin (from UniProt P84801 1-121) (natural protein)”, the OD450 reached in ELISA [1] was 3.68 OD450 and the OD450 reached in ELISA [2] was 1.93 OD450.
